According to publication PMC7692627:

Target: His-P10 outer capsid protein (Rice black-streaked dwarf virus (RBSDV), UniProt D2Y4Q6 1-558)
Assay: ELONA
Conditions: protein: recombinant; tags: N-terminal 6xHis (pET-15b)

| Binder | binding signal [A450 ratio P10/BSA] |
| --- | --- |
| F17 (ssDNA) DNA: TGACACCGTACCTGCTCTGCCGTAGTGATCCTCCTTAACAGTGACCTATAGATCGTTCGTCGTATTTGCTTTGACAATCCTTCTCAGATACTCTCCCGAAGCACGCCAGGGACTAT | 7.55 |
| R13 (ssDNA) DNA: ATAGTCCCTGGCGTGCTTGCATGCTTGGCCCTGCACCGCCTTCGGTCTTTCGCCGACCTCGTCGTTTATTCTATCGGGTTATAAGGATAATGCGGGGTAGAGCAGGTACGGTGTCA | 1.26 |
